According to publication PMC7641318:

Tested on: T1, hADAR2-R2D (Fig. 2C, Fig. S4, Table S4) E488Q (human), P78563-2
T1 sequence: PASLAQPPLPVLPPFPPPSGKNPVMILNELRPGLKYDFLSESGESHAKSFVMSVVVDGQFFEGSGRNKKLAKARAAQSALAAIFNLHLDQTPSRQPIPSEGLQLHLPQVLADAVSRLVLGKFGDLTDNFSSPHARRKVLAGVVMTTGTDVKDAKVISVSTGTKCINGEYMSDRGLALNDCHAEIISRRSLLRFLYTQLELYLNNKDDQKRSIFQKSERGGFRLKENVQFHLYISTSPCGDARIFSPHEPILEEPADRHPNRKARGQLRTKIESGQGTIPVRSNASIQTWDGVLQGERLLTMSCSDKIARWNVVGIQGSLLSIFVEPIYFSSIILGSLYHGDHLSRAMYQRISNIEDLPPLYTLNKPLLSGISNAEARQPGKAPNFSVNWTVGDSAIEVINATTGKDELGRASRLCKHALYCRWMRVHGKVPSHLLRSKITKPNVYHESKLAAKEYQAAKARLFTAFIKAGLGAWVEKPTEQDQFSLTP
Assay: EMSA
Conditions: EMSA: 20 mM Tris-HCl pH 7.0, 3.5% glycerol, 0.5% DTT, 60 mM KCl, 20 mM NaCl, 0.1 mM BME, 1.5 mM EDTA, 0.003% NP-40, 160 U/ml RNasin, 100 ug/ml BSA, 1 ug/ml …

[1] = N = 8-azanebularine at top position 13

Row | Sequence | Kd (N = 8-azanebularine at top position 18) [nM] | Kd [1] [nM]
1 | GCAUAGCUCGCGAUGCUNGAGGGCUCUG / CAGAGCCCCCCAGCAUCGCGAGCUAUGC [hGLI1-28-5' 8AN (5' extended)] | 1.31 | 
2 | GCUCGCGAUGCUNGAGGGCUCUG / CAGAGCCCCCCAGCAUCGCGAGC [hGLI1-23 8AN] |  | 2.67
3 | GCUCGCGAUGCUNGAGGGCUCUGAUAGC / GCUAUCAGAGCCCCCCAGCAUCGCGAGC [hGLI1-28-3' 8AN (3' extended)] |  | 1.79
